The first experiment concerns the target rFN12-14 (recombinant fibronectin type III repeats 12 to 14). The experiment can be described thus: SPR; Biacore T200, C1 sensor chip; rFN12-14 immobilised (~870 RU); rF-, rFG-repeat or multiple repeats in HBS-EP injected at 40 μl/min; double referencing. In general terms: SPR reads the build-up and loss of mass on a sensor chip optically.
The term Kd denotes the free concentration of one partner at which half of the binding sites on the other are occupied at equilibrium, for simple one-to-one binding. On to “r2F-repeats (recombinant Embp fragment, aa 2569 to 2908) (domain or fragment)”, for which the equilibrium dissociation constant (Kd) stood at 10 µM.
Turning to “r2FG-repeats (recombinant Embp fragment, aa 6777 to 7028) (domain or fragment)”, the dissociation constant (Kd) amounted to 0.5 µM.
On to “r4F-repeats (recombinant Embp fragment, aa 2569 to 3248) (domain or fragment)”, for which the Kd worked out at 20 µM.
For “rF-repeat (recombinant first F-repeat of Embp, aa 2569 to 2738) (domain or fragment)”, the Kd came out at 29 µM.
“rFG-repeat (recombinant 19th FG-repeat of Embp, aa 6777 to 6902) (domain or fragment)”: the Kd was determined as 0.13 µM.

Another experiment deals with fibronectin (full-length human Fn, Sigma-Aldrich) (human) (UniProt P02751). Description: SPR; Biacore T200, C1 sensor chip, 25°C, HBS-EP (10 mM HEPES pH 7.4, 150 mM NaCl, 3 mM EDTA, 0.005% Surfactant P20); Fn immobilised by amine coupling (~1,000 RU); rF- and rFG-repeats injected at 40 μl/min.
In the case of “rF-repeat (recombinant first F-repeat of Embp, aa 2569 to 2738)”, the Kd was 4 µM.
“rFG-repeat (recombinant 19th FG-repeat of Embp, aa 6777 to 6902) (domain or fragment)” returned an equilibrium dissociation constant (Kd) of 0.0016 µM.

The values are drawn from publication PMC7587433.
